Results taken from patent US20250230207A1, “COMPOSITION” (Worg Pharmaceuticals (Zhejiang) Co., Ltd., priority 2017, published 2025).

What was measured:
Format in all cases: in vivo, Lewis rat
[1] = test system: experimental autoimmune encephalomyelitis (EAE) in Lewis rats; test: Example 1: development of experimental autoimmune encephalomyelitis (EAE) after immunisation; conditions: paralytic symptom scoring 0-6
Method: (§1) Adult female Lewis rats were randomly allocated to experimental groups and allowed to acclimatise for one week. On Day 0, animals were administered by subcutaneous injection with 200 microliters of an emulsion containing 20 micrograms of IRBP1177-1191 (Cambridge Bioscience, UK) and/or 100 micrograms of human (Fitzgerald Industries International, MA, US) or guinea pig Myelin Basic Protein (gpMBP) in incomplete Freund's adjuvant (Sigma, UK) supplemented with 5 mg/ml Mycobacterium Tuberculosis H37Ra ([…]) (Becton Dickenson, UK). From Day 0 until the end of the experiment, animals were weighed daily. From Day 0 until the end of the experiment, animals were scored daily for clinical signs of experimental autoimmune encephalomyelitis to include limpness, paresis and/or paralysis of the tail, hind limbs and/or front limbs. From Day 0 until the end of the experiment, animals were scored twice weekly for clinical signs of uveitis. On Day 21 (Groups 1, 2 and 3) or Day 28 (Groups 4 and 5), animals were culled and the following samples were dissected out and stored in tissue fixative for optional histopathology analysis: brain, spinal cord, right and left eyes.
Guinea pig MBP may induce Experimental autoimmune encephalomyelitis (EAE) in Lewis rats, a model for multiple sclerosis (MS). In this experiment, severe EAE was developed in Lewis rats immunised with gpMBP alone (incidence 8/8 rats; mean max score 3.5) or in combination with IRBP peptide (incidence 8/8 rats; mean max score 3.9) using the scoring system for paralytic symptoms: 0) no abnormality, (0.5) partial tail limpness, (1) complete tail limpness, (2) one hind limb paresis, (2.5) two hind limbs paresis, (3) one hind limb paralysis, (4) two hind limb paralysis, (5) incontinence and (6) moribund.

[2] = test system: experimental autoimmune uveitis (EAU) in Lewis rats; test: Example 1: development of uveitis (EAU) after immunisation with IRBP, gpMBP and/or huMBP; conditions: for Maximum Score of EAU: TEFI retinal score, maximum possible 6; for clinical signs of anterior uveitis: visual score 0-3, compared to the gpMBP-administered group, data until Day 21
Method: This study aimed at studying the effect, in Lewis rats, of immunisations with guinea pig myelin basic protein (gpMBP), human myelin basic protein (huMBP) and/or interphotoreceptor retinoid-binding protein with regard to development of encephalomyelitis (EAE) and/or uveitis (EAU).
as §1
From Day 0 until the end of the experiment, animals were visually scored twice per week for clinical signs of anterior uveitis using the following scoring system. The maximum possible score was 3. Data were graphed (Mean±SEM).
From Day 0 until the end of the experiment, animals were scored twice per week for clinical signs of intermediate and posterior uveitis. Retinal images were captured using TEFI in non-anaesthetised but restrained animals following pupil dilatation using Tropicamide 1% then Phenylephrine hydrochloride 2.5%. Retinal images were scored using the following system. The maximum possible score was 6. Data were graphed (Mean±SEM).
Animals with an average score for both eyes greater than 0.5 on at least two consecutive TEFI sessions (see FIG. 2) or a score greater than 1.0 on any occasion were considered to have developed clinical signs of posterior uveitis. Based on this criterion, the incidence of EAU was:
Due to the lack of pigmentation in the retina of Lewis rats, the scoring system below was used. This is due to the inability to identify areas of infiltration causing haziness and cuffing on a pale background. Inflammation of the optic disc could not be clearly identified and was not therefore scored, also, no structural damage was observed. Infiltration of retinal vessels could be identified by engorged appearance on a scale of 0-3, mild to severe. Retinal inflammation was identified by the appearance of small to large areas of redness caused by increase in vascularisation also on a scale of 0-3, giving a total possible score of 6.
Clinical signs of anterior uveitis were also observed during the experiment. Data collected until Day 21 were analysed by two-way ANOVA followed by Dunnett's post-test for multiple comparisons between experimental groups.

[3] = Example 1: bodyweights and non-specific clinical observations; conditions: Day 11 to Day 21, compared to the IRBP-administered group
Text: Adult female Lewis rats were randomly allocated to experimental groups and allowed to acclimatise for one week. […] From Day 0 until the end of the experiment, animals were weighed daily. From Day 0 until the end of the experiment, animals were scored daily for clinical signs of experimental autoimmune encephalomyelitis to include limpness, paresis and/or paralysis of the tail, hind limbs and/or front limbs. From Day 0 until the end of the experiment, animals were scored twice weekly for clinical signs of uveitis. On Day 21 (Groups 1, 2 and 3) or Day 28 (Groups 4 and 5), animals were culled and the following samples were dissected out and stored in tissue fixative for optional histopathology analysis: brain, spinal cord, right and left eyes.
From Day 0 until the end of the experiment, animals were checked daily for non-specific clinical signs to include abnormal posture (hunched), abnormal coat condition (piloerection) and abnormal activity levels (reduced or increased activity).
From Day 0 until the end of the experiment, animals were weighed daily.

[4] = Lewis rats immunised SC Day 0 in CFA

| Molecule | EAE incidence [1] | EAE mean max score [1] | Onset (Day) of EAU [2, 4] | Incidence of EAU (clinical signs of posterior uveitis) ([2]; Lewis rats immunised SC Day 0 in CFA, TEFI score criterion, affected/total in brackets) | Maximum Score of EAU [2] | clinical signs of anterior uveitis [2] | bodyweight loss [3] | severity of the clinical signs of EAU compared to the other immunised groups ([2]; vs IRBP (p<0.001), IRBP and gpMBP (p<0.01), IRBP and huMBP (p<0.01), huMBP (p<0.05)) |
| --- | --- | --- | --- | --- | --- | --- | --- | --- |
| ADGSSWEGVGVVPDV [IRBP, reference compound] | 2/8 | 1.0 | 10.5 ± 0.5 days | 100% (8/8) | 5.6 ± 0.3 | observed from Day 11 | no significant bodyweight loss | – |
| gpMBP: guinea pig myelin basic protein (SEQ ID NO: 6), immunising antigen (protein, listed as Cavia porcellus) ASQKRPSQRHGSKYLATASTMDHARHGFLPRHRDTGILDSIGRFFGSDRAAPKRGSGKDSHHAARTTHYGSLPQKSQRSQDENPVVHFFKNIVTPRTPPPSQGKGRGLSLSRFSWGAEGQKPGFGYGGRADYKSKGFKGAHDAQGTLSKIFKLGGRDSRSGSPMARR | 8/8 | 3.5 | 11.5 ± 0.5 days | – | 1.1 ± 0.2 | – | significant bodyweight loss | significantly lower |
| huMBP: human myelin basic protein, immunising antigen (protein, UniProt P02686 1-304, looked up) Myelin basic protein: MGNHAGKRELNAEKASTNSETNRGESEKKRNLGELSRTTSEDNEVFGEADANQNNGTSSQDTAVTDSKRTADPKNAWQDAHPADPGSRPHLIRLFSRDAPGREDNTFKDRPSESDELQTIQEDSAATSESLDVMASQKRPSQRHGSKYLATASTMDHARHGFLPRHRDTGILDSIGRFFGGDRGAPKRGSGKDSHHPARTAHYGSLPQKSHGRTQDENPVVHFFKNIVTPRTPPPSQGKGRGLSLSRFSWGAEGQRPGFGYGGRASDYKSAHKGFKGVDAQGTLSKIFKLGGRDSRSGSPMARR | 3/14 | 1.0 | 10.2 ± 0.7 days | – | 4.1 ± 0.5 | observed on Day 14 (p<0.0001) and Day 18 (p<0.01) | no significant bodyweight loss | – |
